In the supplement of paper PMC11316812:
± gives the standard deviation of the averaged measurements.

Experiments:
hTERT-HMEC = experiment: percentage of EdU-negative (G0-arrested) nuclei per well, 72 h; higher = more G0 arrest; conditions: reference: sequence is the full UniProt precursor, the tested protein was the secreted form or ectodomain
MCF7 = experiment: as above; conditions: reference: sequence is the full UniProt precursor, the tested protein was the secreted form or ectodomain
[1] = protein concentration 0.0254286 µM
[2] = protein concentration 0.254286 µM
[3] = protein concentration 0.0225 µM
[4] = protein concentration 0.01525 µM
[5] = protein concentration 0.1525 µM
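Also: secreted proteins added to cultured cells, EdU pulse at the end, nuclei found by Hoechst imaging, EdU status from nuclear versus surrounding ring intensity ratio, PBS as neutral control.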

MGLTLLLLLLLGLEGQGIVGSLPEVLQAPVGSSILVQCHYRLQDVKAQKVWCRFLPEGCQPLVSSAVDRRAPAGRRTFLTDLGGGLLQVEMVTLQEEDAGEYGCMVDGARGPQILHRVSLNILPPEEEEETHKIGSLAENAFSDPAGSANPLEPSQDEKSIPLIWGAVLLVGLLVAAVVLFAVMAKRKQGNRLGVCGRFLSSRVSGMNPSSVVHHVSDSGPAAELPLDVPHIRLDSPPSFDNTTYTSLPLDSPSGKPSLPAPSSLPPLPPKVLVCSKPVTYATVIFPGGNKGGGTSCGPAQNPPNNQTPSS [Q86YW5]
percentage of EdU-negative (hTERT-HMEC; [1]): 5.07 ± 0.49% | percentage of EdU-negative (hTERT-HMEC; [2]): 5.75 ± 0.65% | percentage of EdU-negative (MCF7; [1]): 20.7 ± 3.4% | percentage of EdU-negative (MCF7; [2]): 26 ± 4.5%

MGLWGQSVPTASSARAGRYPGARTASGTRPWLLDPKILKFVVFIVAVLLPVRVDSATIPRQDEVPQQTVAPQQQRRSLKEEECPAGSHRSEYTGACNPCTEGVDYTIASNNLPSCLLCTVCKSGQTNKSSCTTTRDTVCQCEKGSFQDKNSPEMCRTCRTGCPRGMVKVSNCTPRSDIKCKNESAASSTGKTPAAEETVTTILGMLASPYHYLIIIVVLVIILAVVVVGFSCRKKFISYLKGICSGGGGGPERVHRVLFRRRSCPSRVPGAEDNARNETLSNRYLQPTQVSEQEIQGQELAELTGVTVELPEEPQRLLEQAEAEGCQRRRLLVPVNDADSADISTLLDASATLEEGHAKETIQDQLVGSEKLFYEEDEAGSATSCL [Q9UBN6]
percentage of EdU-negative (hTERT-HMEC; [3]): 4.16 ± 0.28% | percentage of EdU-negative (hTERT-HMEC; protein concentration 0.225 µM): 4.86 ± 0.69% | percentage of EdU-negative (MCF7; [3]): 24 ± 0.81% | percentage of EdU-negative (MCF7; protein concentration 0.225 µM): 24.3 ± 2%

MGPGRPAPAPWPRHLLRCVLLLGCLHLGRPGAPGDAALPEPNVFLIFSHGLQGCLEAQGGQVRVTPACNTSLPAQRWKWVSRNRLFNLGTMQCLGTGWPGTNTTASLGMYECDREALNLRWHCRTLGDQLSLLLGARTSNISKPGTLERGDQTRSGQWRIYGSEEDLCALPYHEVYTIQGNSHGKPCTIPFKYDNQWFHGCTSTGREDGHLWCATTQDYGKDERWGFCPIKSNDCETFWDKDQLTDSCYQFNFQSTLSWREAWASCEQQGADLLSITEIHEQTYINGLLTGYSSTLWIGLNDLDTSGGWQWSDNSPLKYLNWESDQPDNPSEENCGVIRTESSGGWQNRDCSIALPYVCKKKPNATAEPTPPDRWANVKVECEPSWQPFQGHCYRLQAEKRSWQESKKACLRGGGDLVSIHSMAELEFITKQIKQEVEELWIGLNDLKLQMNFEWSDGSLVSFTHWHPFEPNNFRDSLEDCVTIWGPEGRWNDSPCNQSLPSICKKAGQLSQGAAEEDHGCRKGWTWHSPSCYWLGEDQVTYSEARRLCTDHGSQLVTITNRFEQAFVSSLIYNWEGEYFWTALQDLNSTGSFFWLSGDEVMYTHWNRDQPGYSRGGCVALATGSAMGLWEVKNCTSFRARYICRQSLGTPVTPELPGPDPTPSLTGSCPQGWASDTKLRYCYKVFSSERLQDKKSWVQAQGACQELGAQLLSLASYEEEHFVANMLNKIFGESEPEIHEQHWFWIGLNRRDPRGGQSWRWSDGVGFSYHNFDRSRHDDDDIRGCAVLDLASLQWVAMQCDTQLDWICKIPRGTDVREPDDSPQGRREWLRFQEAEYKFFEHHSTWAQAQRICTWFQAELTSVHSQAELDFLSHNLQKFSRAQEQHWWIGLHTSESDGRFRWTDGSIINFISWAPGKPRPVGKDKKCVYMTASREDWGDQRCLTALPYICKRSNVTKETQPPDLPTTALGGCPSDWIQFLNKCFQVQGQEPQSRVKWSEAQFSCEQQEAQLVTITNPLEQAFITASLPNVTFDLWIGLHASQRDFQWVEQEPLMYANWAPGEPSGPSPAPSGNKPTSCAVVLHSPSAHFTGRWDDRSCTEETHGFICQKGTDPSLSPSPAALPPAPGTELSYLNGTFRLLQKPLRWHDALLLCESRNASLAYVPDPYTQAFLTQAARGLRTPLWIGLAGEEGSRRYSWVSEEPLNYVGWQDGEPQQPGGCTYVDVDGAWRTTSCDTKLQGAVCGVSSGPPPPRRISYHGSCPQGLADSAWIPFREHCYSFHMELLLGHKEARQRCQRAGGAVLSILDEMENVFVWEHLQSYEGQSRGAWLGMNFNPKGGTLVWQDNTAVNYSNWGPPGLGPSMLSHNSCYWIQSNSGLWRPGACTNITMGVVCKLPRAEQSSFSPSALPENPAALVVVLMAVLLLLALLTAALILYRRRQSIERGAFEGARYSRSSSSPTEATEKNILVSDMEMNEQQE [Q9UBG0]
percentage of EdU-negative (hTERT-HMEC; [4]): 4.54 ± 0.35% | percentage of EdU-negative (hTERT-HMEC; [5]): 6.08 ± 1.1% | percentage of EdU-negative (MCF7; [4]): 25.5 ± 1.7% | percentage of EdU-negative (MCF7; [5]): 24.5 ± 0.7%

MGPISAPSCRWRIPWQGLLLTASLFTFWNPPTTAQLTIEAVPSNAAEGKEVLLLVHNLPQDPRGYNWYKGETVDANRRIIGYVISNQQITPGPAYSNRETIYPNASLLMRNVTRNDTGSYTLQVIKLNLMSEEVTGQFSVHPETPKPSISSNNSNPVEDKDAVAFTCEPETQNTTYLWWVNGQSLPVSPRLQLSNGNRTLTLLSVTRNDVGPYECEIQNPASANFSDPVTLNVLYGPDAPTISPSDTYYHAGVNLNLSCHAASNPPSQYSWSVNGTFQQYTQKLFIPNITTKNSGSYACHTTNSATGRNRTTVRMITVSDALVQGSSPGLSARATVSIMIGVLARVALI
percentage of EdU-negative (hTERT-HMEC; [3]): 5.19 ± 1.8% | percentage of EdU-negative (hTERT-HMEC; protein concentration 0.225 µM): 9.55 ± 1.5% | percentage of EdU-negative (MCF7; [3]): 25.7 ± 1.8% | percentage of EdU-negative (MCF7; protein concentration 0.225 µM): 27.4 ± 2.2%
